T1: Ps.LrhI (Stutzerimonas stutzeri, UniProt Q75WH8)
T1 construct: gene L-RhI; N-terminal hexa-His tag, synthetic gene in pET-28a, E. coli Rosetta(DE3) pLysS
T1 sequence (Q75WH8 1-430): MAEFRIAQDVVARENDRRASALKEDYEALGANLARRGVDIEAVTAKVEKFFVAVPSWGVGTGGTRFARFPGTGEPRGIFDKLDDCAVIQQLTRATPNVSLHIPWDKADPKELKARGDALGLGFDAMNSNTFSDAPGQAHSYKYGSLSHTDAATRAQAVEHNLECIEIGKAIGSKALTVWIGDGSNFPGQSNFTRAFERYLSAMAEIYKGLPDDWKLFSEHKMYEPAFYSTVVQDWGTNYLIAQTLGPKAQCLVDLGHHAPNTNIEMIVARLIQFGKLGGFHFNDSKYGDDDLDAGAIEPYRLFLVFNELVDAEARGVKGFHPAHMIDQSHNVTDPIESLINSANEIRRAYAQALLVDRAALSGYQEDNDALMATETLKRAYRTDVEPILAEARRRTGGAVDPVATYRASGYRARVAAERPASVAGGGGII


Tests used:
[1] = target: Asp52 (UniProt position 70, TDGSTDYGILQ); settings: cited from earlier work
[2] = target: T1, Ps.LrhI; assay: coupled assay with D-erythrulose reductase, NADH at […] nm; type: biochemical; settings: 10 mM D-erythrose, 4 mM MgCl2, pH 7.0, 37 °C
[3] = substrate: O=C(CO)[C@H](O)CO; assay: purified protein; type: biochemical, Bifidobacterium adolescentis; settings: pH 6.5, 37 °C, 50 mM inorganic phosphate, 0.8 mM TPP, 3.8 mM MgCl2

Molecule | Km [3] [mM] | further results
Hen egg white lysozyme (lysozyme C) (Gallus gallus) | – | pKa [1]: 3.33
OC1OC[C@@H](O)[C@H]1O (stereo partly drawn) [D-erythrose] | – | coupled assay with D-erythrulose reductase, NADH at 340 nm [2]: We characterized the D-erythrose activity of the enzyme and its stability under synthesis-like conditions
Bad.F6Pkt (Bifidobacterium adolescentis ATCC 15703) (protein, homodimer) MTSPVIGTPWKKLNAPVSEEAIEGVDKYWRAANYLSIGQIYLRSNPLMKEPFTREDVKHRLVGHWGTTPGLNFLIGHINRLIADHQQNTVIIMGPGHGGPAGTAQSYLDGTYTEYFPNITKDEAGLQKFFRQFSYPGGIPSHYAPETPGSIHEGGELGYALSHAYGAVMNNPSLFVPAIVGDGEAETGPLATGWQSNKLINPRTDGIVLPILHLNGYKIANPTILSRISDEELHEFFHGMGYEPYEFVAGFDNEDHLSIHRRFAELFETVFDEICDIKAAAQTDDMTRPFYPMIIFRTPKGWTCPKFIDGKKTEGSWRSHQVPLASARDTEAHFEVLKNWLESYKPEELFDENGAVKPEVTAFMPTGELRIGENPNANGGRIREELKLPKLEDYEVKEVAEYGHGWGQLEATRRLGVYTRDIIKNNPDSFRIFGPDETASNRLQAAYDVTNKQWDAGYLSAQVDEHMAVTGQVTEQLSEHQMEGFLEGYLLTGRHGIWSSYESFVHVIDSMLNQHAKWLEATVREIPWRKPISSMNLLVSSHVWRQDHNGFSHQDPGVTSVLLNKCFNNDHVIGIYFPVDSNMLLAVAEKCYKSTNKINAIIAGKQPAATWLTLDEARAELEKGAAEWKWASNVKSNDEAQIVLAATGDVPTQEIMAAADKLDAMGIKFKVVNVVDLVKLQSAKENNEALSDEEFAELFTEDKPVLFAYHSYARDVRGLIYDRPNHDNFNVHGYEEQGSTTTPYDMVRVNNIDRYELQAEALRMIDADKYADKINELEAFRQEAFQFAVDNGYDHPDYTDWVYSGVNTNKQGAISATAATAGDNE | 36.2 ± 3.2 | –
Bad.F6Pkt (Bifidobacterium adolescentis ATCC 15703; H548N) (protein, homodimer) MTSPVIGTPWKKLNAPVSEEAIEGVDKYWRAANYLSIGQIYLRSNPLMKEPFTREDVKHRLVGHWGTTPGLNFLIGHINRLIADHQQNTVIIMGPGHGGPAGTAQSYLDGTYTEYFPNITKDEAGLQKFFRQFSYPGGIPSHYAPETPGSIHEGGELGYALSHAYGAVMNNPSLFVPAIVGDGEAETGPLATGWQSNKLINPRTDGIVLPILHLNGYKIANPTILSRISDEELHEFFHGMGYEPYEFVAGFDNEDHLSIHRRFAELFETVFDEICDIKAAAQTDDMTRPFYPMIIFRTPKGWTCPKFIDGKKTEGSWRSHQVPLASARDTEAHFEVLKNWLESYKPEELFDENGAVKPEVTAFMPTGELRIGENPNANGGRIREELKLPKLEDYEVKEVAEYGHGWGQLEATRRLGVYTRDIIKNNPDSFRIFGPDETASNRLQAAYDVTNKQWDAGYLSAQVDEHMAVTGQVTEQLSEHQMEGFLEGYLLTGRHGIWSSYESFVHVIDSMLNQHAKWLEATVREIPWRKPISSMNLLVSSHVWRQDNNGFSHQDPGVTSVLLNKCFNNDHVIGIYFPVDSNMLLAVAEKCYKSTNKINAIIAGKQPAATWLTLDEARAELEKGAAEWKWASNVKSNDEAQIVLAATGDVPTQEIMAAADKLDAMGIKFKVVNVVDLVKLQSAKENNEALSDEEFAELFTEDKPVLFAYHSYARDVRGLIYDRPNHDNFNVHGYEEQGSTTTPYDMVRVNNIDRYELQAEALRMIDADKYADKINELEAFRQEAFQFAVDNGYDHPDYTDWVYSGVNTNKQGAISATAATAGDNE | 48.7 ± 0.4 | –
